Read-outs that look alike come from different tables or passages of the source.
Tests used:
Test in all cases: cell-based or functional assay
[1] = target: T1, SARS-CoV-2 Spike on pseudotyped virus (PsV) (SARS-CoV-2, UniProt P0DTC2 14-1273)
[2] = target: T1, SARS-CoV-2 Spike on pseudotyped virus …; remark: listed apart in the source
[3] = target: T1, SARS-CoV-2 Spike on pseudotyped virus …; remark: listed apart in the source

B1: mAb 120 (antibody, V domains shown)
VH: QVQLVQSGAEVKKPGASVKVSCKASGYTFTSYDINWVRQAPGQGLEWMGMIDPSGGSTSYAQKFQGRVTMTRDTSTSTVYMELSSLRSEDTAVYYCAKDFGGGTRYDYWYFDLWGRGTLVTVSS
VL: EIVMTQSPATLSVSPGERATLSCRASQSVSSRYLAWYQQKPGQAPRLLIYGASTRATGIPARFSGSGSGTEFTLTISSLQSEDFAVYYCQQYYTTPRTFGQGTRLEIKR
B1 was tested, and the “Median IC50, SARS-CoV-2 PsV neutralization” value (“Median IC50” below) [1] was greater than 50 µg/mL and the “IC50 SARS-CoV2 PsV, IgG” value [2] was greater than 50 µg/mL.

B2: mAb 108 (antibody, V domains shown)
VH: QVQLVQSGAEVKKPGASVKVSCKASGYIFSRYAIHWVRQAPGQGLEWMGWMNPISGNTDYAPNFQGRVTMTRDTSTSTVYMELSSLRSEDTAVYYCAKDGSQLAYLVEYFQHWGQGTLVTVSS
VL: DIQMTQSPSSLSASVGDRVTITCRASQVITNNLAWYQQKPGKAPKLLIYDASTLETGVPSRFSGSGSGTDFTLTISSLQPEDFATYYCQQSYTFPYTFGQGTKVEIKR
For B2, the “Median IC50” value [1] was greater than 50 µg/mL and the “IC50 SARS-CoV2 PsV, IgG” value [2] was greater than 50 µg/mL.

B3: mAb 82 (antibody, V domains shown)
VH: QVQLVQSGAEVKKPGASVKVSCKASGGSFSTSAFYWVRQAPGQGLEWMGWINPYTGGTNYAQKFQGRVTMTRDTSTSTVYMELSSLRSEDTAVYYCARSRALYGSGSYFDYWGQGTLVTVSS
VL: DIQMTQSPSSLSASVGDRVTITCRASQVISNYLAWYQQKPGKAPKLLIYDASNLETGVPSRFSGSGSGTDFTLTISSLQPEDFATYYCQQSFSPPPTFGQGTRLEIKR
For B3, the “Median IC50” value [1] was 1.6 µg/mL and the “IC50 SARS-CoV2 PsV, IgG” value [2] was 1.6 µg/mL.

B4: mAb 64 (antibody, V domains shown)
VH: EVQLLESGGGLVQPGGSLRLSCAASGFPFSQHGMHWVRQAPGKGLEWVSAIDRSGSYIYYADSVKGRFTISRDNSKNTLYLQMNSLRAEDTAVYYCARDTYGGKVTYFDYWGQGTLVTVSS
VL: DIQMTQSPSSLSASVGDRVTITCRASQGISSHLAWYQQKPGKAPKLLIYDASNLETGVPSRFSGSGSGTDFTLTISSLQPEDFATYYCQQTYSTPWTFGQGTKVEIKR
For B4, the “Median IC50” value [1] was greater than 50 µg/mL and the “IC50 SARS-CoV2 PsV, IgG” value [2] was greater than 50 µg/mL.

B5: mAb 46 (antibody, V domains shown)
VH: EVQLLESGGGLVQPGRSLRLSCAASGFTFSSYAMSWVRQAPGKGLEWVSTIYSGGSTYYADSVKGRFTISRDNSKNTLYLQMNSLRAEDTAVYYCARGDSRDAFDIWGQGTMVTVSS
VL: DIQMTQSPSSLSASVGDRVTITCRASQSISSWLAWYQQKPGKAPKLLIYDASNLETGVPSRFSGSGSGTDFTLTISSLQPEDFATYYCQQSYSTPFTFGPGTKVDIKR
B5 was tested, and the “Median IC50” value [1] was 2.1 µg/mL and the “IC50 SARS-CoV2 PsV, IgG” value [2] was 2.1 µg/mL.

B6: mAb 324 (antibody, V domains shown)
VH: QVQLVQSGAEVKKPGASVKVSCKASGGTFNNYGISWVRQAPGQGLEWMGWMNPNSGNTGYAQKFQGRVTMTRDTSTSTVYMELSSLRSEDTAVYYCARVGDYGDYIVSPFDLWGRGTLVTVSS
VL: DIQMTQSPSSLSASVGDRVTITCRASQSITTYLNWYQQKPGKAPKLLIYDASNLETGVPSRFSGSGSGTDFTLTISSLQPEDFATYYCQQSYSTPPTFGQGTKVEIKR
B6 was tested, and the “Median IC50” value [1] was 0.78 µg/mL and the “IC50 SARS-CoV2 PsV, IgG” value [2] was 0.78 µg/mL.

B7: mAb 349 (antibody, V domains shown)
VH: EVQLLESGGGLVQPGGSLRLSCAASGFTFSNYGMHWVRQAPGKGLEWVSGISSAGSITNYADSVKGRFTISRDNSKNTLYLQMNSLRAEDTAVYYCAGNHAGTTVTSEYFQHWGQGTLVTVSS
VL: DIQMTQSPSSLSASVGDRVTITCRASQSISSWLAWYQQKPGKAPKLLIYDTSNLETGVPSRFSGSGSGTDFTLTISSLQPEDFATYYCQQSYTTPWTFGQGTRLEIKR
In the case of B7, the “Median IC50” value [1] is reported as greater than 50 µg/mL and the “IC50 SARS-CoV2 PsV, IgG” value [2] is reported as greater than 50 µg/mL.

B8: 4A8 IgG (antibody, V domains shown)
VH: EVQLVESGAEVKKPGASVKVSCKVSGYTLTELSMHWVRQAPGKGLEWMGGFDPEDGETMYAQKFQGRVTMTEDTSTDTAYMELSSLRSEDTAVYYCATSTAVAGTPDLFDYYYGMDVWGQGTTVTVSS
VL: EIVMTQSPLSSPVTLGQPASISCRSSQSLVHSDGNTYLSWLQQRPGQPPRLLIYKISNRFSGVPDRFSGSGAGTDFTLKISRVEAEDVGVYYCTQATQFPYTFGQGTKVDIK
For B8, the “Median IC50” value [3] was > 100 g/mL as printed (µg/mL meant).

B9: mAb 178 (antibody, V domains shown)
VH: QVQLVQSGAEVKKPGASVKVSCKASGYTFTDYHMHWVRQAPGQGLEWMGWINPNSGGTNYAQKFQGRVTMTRDTSTSTVYMELSSLRSEDTAVYYCARDISSWYEITKFDPWGQGTLVTVSS
VL: EIVMTQSPATLSVSPGERATLSCKASQSVSGTYLAWYQQKPGQAPRLLIYGASTRATGIPARFSGSGSGTEFTLTISSLQSEDFAVYYCLQTHSYPPTFGQGTKVEIKR
For B9, the “Median IC50” value [1] was greater than 50 µg/mL and the “IC50 SARS-CoV2 PsV, IgG” value [2] was greater than 50 µg/mL.

B10: mAb 160 (antibody, V domains shown)
VH: QVQLVQSGAEVKKPGASVKVSCKASGYTFTGHDMHWVRQAPGQGLEWMGIINPSGGSTSYAQKFQGRVTMTRDTSTSTVYMELSSLRSEDTAVYYCARANSLRYYYGMDVWGQGTMVTVSS
VL: DIQMTQSPSSLSASVGDRVTITCRASQSVSSWLAWYQQKPGKAPKLLIYAASSLQSGVPSRFSGSGSGTDFTLTISSLQPEDFATYYCQQGYTTPYTFGQGTKLEIKR
With B10 the “Median IC50” value [1] was greater than 50 µg/mL and the “IC50 SARS-CoV2 PsV, IgG” value [2] was greater than 50 µg/mL.

B11: mAb 52 (antibody, V domains shown)
VH: QVQLVQSGAEVKKPGSSVKVSCKASGYTFTSYGISWVRQAPGQGLEWMGGIIPMFGTTNYAQKFQGRVTITADKSTSTAYMELSSLRSEDTAVYYCARDRGDTIDYWGQGTLVTVSS
VL: DIQMTQSPSSLSASVGDRVTITCRASQGISNNLNWYQQKPGKAPKLLIYAASSLESGVPSRFSGSGSGTDFTLTISSLQPEDFATYYCQQGNGFPLTFGPGTKVDIKR
With B11 the “Median IC50” value [1] was 0.61 µg/mL and the “IC50 SARS-CoV2 PsV, IgG” value [2] was 0.55 µg/mL.

B12: mAb 128 (antibody, V domains shown)
VH: QVQLVQSGAEVKKPGASVKVSCKASGYTFTHYYMHWVRQAPGQGLEWMGIINPSSSSASYSQKFQGRVTMTRDTSTSTVYMELSSLRSEDTAVYYCARDGRYGSGSYPFDYWGQGTLVTVSS
VL: DIQMTQSPSSLSASVGDRVTITCRASQNISRYLNWYQQKPGKAPKLLIYDASNLETGVPSRFSGSGSGTDFTLTISSLQPEDFATYYCQQANGFPPTFGQGTKLEIKR
In the case of B12, the “Median IC50” value [1] is reported as greater than 50 µg/mL and the “IC50 SARS-CoV2 PsV, IgG” value [2] is reported as greater than 50 µg/mL.

B13: mAb 56 (antibody, V domains shown)
VH: QVQLVQSGAEVKKPGASVKVSCKASGYTFTSYGISWVRQAPGQGLEWMGWISAYNGNTNYAQKLQGRVTMTRDTSTSTVYMELSSLRSEDTAVYYCARDIGPIDYWGQGTLVTVSS
VL: DIQMTQSPSSLSASVGDRVTITCRASQGISSYLAWYQQKPGKAPKLLIYDASNLQSGVPSRFSGSGSGTDFTLTISSLQPEDFATYYCQQANSFPSTFGQGTKVEIKR
For B13, the “Median IC50” value [1] was greater than 50 µg/mL and the “IC50 SARS-CoV2 PsV, IgG” value [2] was greater than 50 µg/mL.

B14: mAb 158 (antibody, V domains shown)
VH: QVQLVQSGAEVKKPGASVKVSCKASGYTFTGYYMHWVRQAPGQGLEWMGWINPLNGGTNFAPKFQGRVTMTRDTSTSTVYMELSSLRSEDTAVYYCARDPGGSYSNDAFDIWGQGTLVTVSS
VL: DIQMTQSPSSLSASVGDRVTITCRASQSISRYLNWYQQKPGKAPKLLIYDASNLESGVPSRFSGSGSGTDFTLTISSLQPEDFATYYCQQANSFPLTFGGGTKVDIKR
For B14, the “Median IC50” value [1] was greater than 50 µg/mL and the “IC50 SARS-CoV2 PsV, IgG” value [2] was greater than 50 µg/mL.

B15: mAb 192 (antibody, V domains shown)
VH: QVQLVQSGAEVKKPGSSVKVSCKASGGTFSSYAISWVRQAPGQGLEWMGWINPNSGGANYAQKFQGRVTITADESTSTAYMELSSLRSEDTAVYYCSTYYYDSSGYSTDYWGQGTLVTVSS
VL: DIVMTQSPLSLPVTPGEPASISCRSSQSLLHSNGYNYLDWYLQKPGQSPQLLIYAASSLQSGVPDRFSGSGSGTDFTLKISRVEAEDVGVYYCMQALQTPYTFGQGTKLEIKR
B15 was tested, and the “Median IC50” value [1] was greater than 50 µg/mL and the “IC50 SARS-CoV2 PsV, IgG” value [2] was greater than 50 µg/mL.

B16: mAb 180 (antibody, V domains shown)
VH: QVQLVQSGAEVKKPGSSVKVSCKASGYTFTSYAMHWVRQAPGQGLEWMGRISPRSGGTKYAQRFQGRVTITADESTSTAYMELSSLRSEDTAVYYCAREAVAGTHPQAGDFDLWGRGTLVTVSS
VL: DIVMTQSPLSLPVTPGEPASISCRSSQSLLHSNGYNYLDWYLQKPGQSPQLLIYAASSLQSGVPDRFSGSGSGTDFTLKISRVEAEDVGVYYCQQYYSSPYTFGQGTKLEIKR
In the case of B16, the “Median IC50” value [1] is reported as greater than 50 µg/mL and the “IC50 SARS-CoV2 PsV, IgG” value [2] is reported as greater than 50 µg/mL.

B17: mAb 368 (antibody, V domains shown)
VH: QVQLVQSGAEVKKPGSSVKVSCKASGYTFTSYDINWVRQAPGQGLEWMGAIMPMFGTANYAQKFQGRVTITADESTSTAYMELSSLRSEDTAVYYCARGSSGYYYGWGQGTLVTVSS
VL: not shown
With B17 the “Median IC50” value [1] was greater than 50 µg/mL and the “IC50 SARS-CoV2 PsV, IgG” value [2] was greater than 50 µg/mL.

B18: mAb 236 (antibody, V domains shown)
VH: QVQLVQSGAEVKKPGASVKVSCKASGGTFTSYGINWVRQAPGQGLEWMGWMNPNSGNTGYAQKFQGRVTMTRDTSTSTVYMELSSLRSEDTAVYYCASRGIQLLPRGMDVWGQGTTVTVSS
VL: not shown
B18 was tested, and the “Median IC50” value [1] was 0.057 µg/mL and the “IC50 SARS-CoV2 PsV, IgG” value [2] was 0.057 µg/mL.

B19: mAb 254 (antibody, V domains shown)
VH: EVQLLESGGGLVQPGGSLRLSCAASGFTFSSSAMHWVRQAPGKGLEWVSAIGTGGDTYYADSVKGRFTISRDNSKNTLYLQMNSLRAEDTAVYYCAREGDGYNFYFDYWGQGTLVTVSS
VL: DIQMTQSPSSLSASVGDRVTITCRASQGISSYLAWYQQKPGKAPKLLIYDASSLQIGVPSRFSGSGSGTDFTLTISSLQPEDFATYYCLQSYSTPPWTFGQGTKVEIKR
In the case of B19, the “Median IC50” value [1] is reported as greater than 50 µg/mL and the “IC50 SARS-CoV2 PsV, IgG” value [2] is reported as greater than 50 µg/mL.

Source: patent publication US20250263469A1 (HOSPITAL FOR SICK CHILDREN, published 2025)
